Kd data for 23 molecules are collected here from article PMC10786891, “Massively parallel profiling of RNA-targeting CRISPR-Cas13d”.

First the molecules themselves.
B1: target 1 MT 5'PFS GCG 3'PFS ACU (mixed)
RNA 1: CACCCGUGCAAAAAUGCAGGGGUCUAAAACUGAGCGGAUAACCUCUCUAUGG
RNA 2: GGGAAUGGAUCCACAUCUACGAAUUCGCGCCAUAGAGAGGUUAUCCGCUCAACUAGAUCGGAAGAGCACACGU
B2: target 1 U11G,G12U (mixed)
RNA 1: CACCCGUGCAAAAAUGCAGGGGUCUAAAACUGAGCGGAUAACCUCUCUAUGG
RNA 2: GGGAAUGGAUCCACAUCUACGAAUUCGUACCAUAGAGAGUGUAUCCGCUCACCGAGAUCGGAAGAGCACACGU
B3: target 1 MT 5'PFS GGU 3'PFS UCC (mixed)
RNA 1: CACCCGUGCAAAAAUGCAGGGGUCUAAAACUGAGCGGAUAACCUCUCUAUGG
RNA 2: GGGAAUGGAUCCACAUCUACGAAUUCGGUCCAUAGAGAGGUUAUCCGCUCAUCCAGAUCGGAAGAGCACACGU
B4: target 1 MT 5'PFS CCG 3'PFS CUG (mixed)
RNA 1: CACCCGUGCAAAAAUGCAGGGGUCUAAAACUGAGCGGAUAACCUCUCUAUGG
RNA 2: GGGAAUGGAUCCACAUCUACGAAUUCCCGCCAUAGAGAGGUUAUCCGCUCACUGAGAUCGGAAGAGCACACGU
B5: target 1 MT 5'PFS GUC 3'PFS CGG (mixed)
RNA 1: CACCCGUGCAAAAAUGCAGGGGUCUAAAACUGAGCGGAUAACCUCUCUAUGG
RNA 2: GGGAAUGGAUCCACAUCUACGAAUUCGUCCCAUAGAGAGGUUAUCCGCUCACGGAGAUCGGAAGAGCACACGU
B6: target 1 MT 5'PFS GGU 3'PFS UCA (mixed)
RNA 1: CACCCGUGCAAAAAUGCAGGGGUCUAAAACUGAGCGGAUAACCUCUCUAUGG
RNA 2: GGGAAUGGAUCCACAUCUACGAAUUCGGUCCAUAGAGAGGUUAUCCGCUCAUCAAGAUCGGAAGAGCACACGU
B7: target 1 MT 5'PFS AAG 3'PFS AUG (mixed)
RNA 1: CACCCGUGCAAAAAUGCAGGGGUCUAAAACUGAGCGGAUAACCUCUCUAUGG
RNA 2: GGGAAUGGAUCCACAUCUACGAAUUCAAGCCAUAGAGAGGUUAUCCGCUCAAUGAGAUCGGAAGAGCACACGU
B8: target 1 MT 5'PFS GCC 3'PFS CCA (mixed)
RNA 1: CACCCGUGCAAAAAUGCAGGGGUCUAAAACUGAGCGGAUAACCUCUCUAUGG
RNA 2: GGGAAUGGAUCCACAUCUACGAAUUCGCCCCAUAGAGAGGUUAUCCGCUCACCAAGAUCGGAAGAGCACACGU
B9: target 1 MT 5'PFS GUC 3'PFS CGU (mixed)
RNA 1: CACCCGUGCAAAAAUGCAGGGGUCUAAAACUGAGCGGAUAACCUCUCUAUGG
RNA 2: GGGAAUGGAUCCACAUCUACGAAUUCGUCCCAUAGAGAGGUUAUCCGCUCACGUAGAUCGGAAGAGCACACGU
B10: target 1 MT 5'PFS GCU 3'PFS ACC (mixed)
RNA 1: CACCCGUGCAAAAAUGCAGGGGUCUAAAACUGAGCGGAUAACCUCUCUAUGG
RNA 2: GGGAAUGGAUCCACAUCUACGAAUUCGCUCCAUAGAGAGGUUAUCCGCUCAACCAGAUCGGAAGAGCACACGU
B11: target 1 MT 5'PFS GUC 3'PFS CGA (mixed)
RNA 1: CACCCGUGCAAAAAUGCAGGGGUCUAAAACUGAGCGGAUAACCUCUCUAUGG
RNA 2: GGGAAUGGAUCCACAUCUACGAAUUCGUCCCAUAGAGAGGUUAUCCGCUCACGAAGAUCGGAAGAGCACACGU
B12: target 1 MT 5'PFS GAG 3'PFS UUC (mixed)
RNA 1: CACCCGUGCAAAAAUGCAGGGGUCUAAAACUGAGCGGAUAACCUCUCUAUGG
RNA 2: GGGAAUGGAUCCACAUCUACGAAUUCGAGCCAUAGAGAGGUUAUCCGCUCAUUCAGAUCGGAAGAGCACACGU
B13: target 1 MT 5'PFS AAG 3'PFS AUA (mixed)
RNA 1: CACCCGUGCAAAAAUGCAGGGGUCUAAAACUGAGCGGAUAACCUCUCUAUGG
RNA 2: GGGAAUGGAUCCACAUCUACGAAUUCAAGCCAUAGAGAGGUUAUCCGCUCAAUAAGAUCGGAAGAGCACACGU
B14: target 1 MT 5'PFS GCU 3'PFS ACG (mixed)
RNA 1: CACCCGUGCAAAAAUGCAGGGGUCUAAAACUGAGCGGAUAACCUCUCUAUGG
RNA 2: GGGAAUGGAUCCACAUCUACGAAUUCGCUCCAUAGAGAGGUUAUCCGCUCAACGAGAUCGGAAGAGCACACGU
B15: target 1 MT 5'PFS AAG 3'PFS AUC (mixed)
RNA 1: CACCCGUGCAAAAAUGCAGGGGUCUAAAACUGAGCGGAUAACCUCUCUAUGG
RNA 2: GGGAAUGGAUCCACAUCUACGAAUUCAAGCCAUAGAGAGGUUAUCCGCUCAAUCAGAUCGGAAGAGCACACGU
B16: target 1 MT 5'PFS GCG 3'PFS ACA (mixed)
RNA 1: CACCCGUGCAAAAAUGCAGGGGUCUAAAACUGAGCGGAUAACCUCUCUAUGG
RNA 2: GGGAAUGGAUCCACAUCUACGAAUUCGCGCCAUAGAGAGGUUAUCCGCUCAACAAGAUCGGAAGAGCACACGU
B17: target 1 MT 5'PFS GCA 3'PFS CUA (mixed)
RNA 1: CACCCGUGCAAAAAUGCAGGGGUCUAAAACUGAGCGGAUAACCUCUCUAUGG
RNA 2: GGGAAUGGAUCCACAUCUACGAAUUCGCACCAUAGAGAGGUUAUCCGCUCACUAAGAUCGGAAGAGCACACGU
B18: target 1 insG 3' of 22,insC 3' of 14 (mixed)
RNA 1: CACCCGUGCAAAAAUGCAGGGGUCUAAAACUGAGCGGAUAACCUCUCUAUGG
RNA 2: GGGAAUGGAUCCACAUCUACGAAUUCGUACGCAUAGAGACGGUUAUCCGCUCACCGAGAUCGGAAGAGCACACGU
B19: target 1 MT 5'PFS GCC 3'PFS CCG (mixed)
RNA 1: CACCCGUGCAAAAAUGCAGGGGUCUAAAACUGAGCGGAUAACCUCUCUAUGG
RNA 2: GGGAAUGGAUCCACAUCUACGAAUUCGCCCCAUAGAGAGGUUAUCCGCUCACCGAGAUCGGAAGAGCACACGU
B20: target 1 MT 5'PFS CCG 3'PFS CUC (mixed)
RNA 1: CACCCGUGCAAAAAUGCAGGGGUCUAAAACUGAGCGGAUAACCUCUCUAUGG
RNA 2: GGGAAUGGAUCCACAUCUACGAAUUCCCGCCAUAGAGAGGUUAUCCGCUCACUCAGAUCGGAAGAGCACACGU
B21: target 1 MT 5'PFS GCG 3'PFS ACG (mixed)
RNA 1: CACCCGUGCAAAAAUGCAGGGGUCUAAAACUGAGCGGAUAACCUCUCUAUGG
RNA 2: GGGAAUGGAUCCACAUCUACGAAUUCGCGCCAUAGAGAGGUUAUCCGCUCAACGAGAUCGGAAGAGCACACGU
B22: target 1 MT 5'PFS CCG 3'PFS CUA (mixed)
RNA 1: CACCCGUGCAAAAAUGCAGGGGUCUAAAACUGAGCGGAUAACCUCUCUAUGG
RNA 2: GGGAAUGGAUCCACAUCUACGAAUUCCCGCCAUAGAGAGGUUAUCCGCUCACUAAGAUCGGAAGAGCACACGU
B23: target 1 MT 5'PFS GUC 3'PFS CGC (mixed)
RNA 1: CACCCGUGCAAAAAUGCAGGGGUCUAAAACUGAGCGGAUAACCUCUCUAUGG
RNA 2: GGGAAUGGAUCCACAUCUACGAAUUCGUCCCAUAGAGAGGUUAUCCGCUCACGCAGAUCGGAAGAGCACACGU

The series concerns the target T1, EsCas13d, nuclease-dead (Eubacterium siraeum, UniProt B0MS50, R295A;H300A;R849A;H854A).
T1 sequence: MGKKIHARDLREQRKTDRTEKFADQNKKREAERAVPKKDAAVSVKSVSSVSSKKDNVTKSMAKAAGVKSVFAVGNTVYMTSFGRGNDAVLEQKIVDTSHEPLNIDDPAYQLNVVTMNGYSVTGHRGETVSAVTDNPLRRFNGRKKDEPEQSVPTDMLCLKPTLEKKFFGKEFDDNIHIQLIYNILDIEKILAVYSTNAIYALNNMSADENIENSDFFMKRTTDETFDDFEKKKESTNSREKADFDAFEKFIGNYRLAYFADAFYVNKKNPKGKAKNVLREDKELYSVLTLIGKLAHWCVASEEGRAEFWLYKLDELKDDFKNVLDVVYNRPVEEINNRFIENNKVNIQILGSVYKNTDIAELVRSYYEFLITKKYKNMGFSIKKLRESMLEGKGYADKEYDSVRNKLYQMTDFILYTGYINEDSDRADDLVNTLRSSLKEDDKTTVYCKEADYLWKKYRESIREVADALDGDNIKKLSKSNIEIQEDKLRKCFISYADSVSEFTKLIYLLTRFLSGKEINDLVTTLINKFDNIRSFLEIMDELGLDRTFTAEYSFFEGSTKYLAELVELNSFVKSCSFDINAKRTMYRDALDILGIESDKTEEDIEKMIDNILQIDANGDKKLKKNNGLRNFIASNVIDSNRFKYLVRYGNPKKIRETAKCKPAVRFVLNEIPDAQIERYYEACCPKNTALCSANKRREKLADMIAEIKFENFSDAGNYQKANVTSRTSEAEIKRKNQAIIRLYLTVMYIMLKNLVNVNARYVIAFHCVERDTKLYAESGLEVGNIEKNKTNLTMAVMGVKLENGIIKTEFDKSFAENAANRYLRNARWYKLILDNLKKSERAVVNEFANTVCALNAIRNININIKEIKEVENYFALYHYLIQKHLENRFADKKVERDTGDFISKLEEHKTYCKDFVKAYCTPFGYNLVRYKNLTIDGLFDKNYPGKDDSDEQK
Description: crRNA (strand 1, pre-loaded); Mg2+; 40 mM Tris-HCl pH 7.5, 150 mM NaCl, 6 mM MgCl2, 1 mM DTT, 0.1% Tween-20, 0.2 mg/ml BSA; 25 C; 10 min per concentration, then washed. As to conditions: tags: His6-TwinStrep-SUMO cleaved; N-terminal SNAP kept (SNAP-Surface 488); label: 3' end held by stalled T7 RNA polymerase.
B1 had a Kd of 18.2 ± 3.9 nM.

The molecule B2 came in with a dissociation constant (Kd) of about 50 nM.

B3 returned a Kd of 21 ± 5.5 nM. Molecule B4 yielded a Kd of 1.95 ± 0.465 nM. Take B5: the affinity, expressed as Kd, was 28.5 ± 7 nM. The figure for B6 is 44 ± 19 nM; for B7 it is 33 ± 8.5 nM. Take B8: the dissociation constant Kd came to 95 ± 40 nM.

As for B9, the Kd was determined as 13.2 ± 1.9 nM. The figure for B10 is 43 ± 14.5 nM; for B11 it is 19.5 ± 4 nM; for B12 it is 37 ± 11 nM. B13: binding was characterised by a dissociation constant (Kd) of 26.6 ± 7.15 nM. Under B14 stands 43.5 ± 10.5 nM. The figure for B15 is 26.5 ± 10 nM; for B16 it is 32.5 ± 14.5 nM; for B17 it is 18.4 ± 4.7 nM.

Molecule B18 yielded a Kd of 41 ± 17 nM. B19 registered a Kd of 12.9 ± 3.15 nM. Under B20 stands 3.15 ± 1 nM; under B21, 49.5 ± 10 nM. In turn, B22 registered a Kd of 7.9 ± 2.9 nM. Under B23 stands 22 ± 4.5 nM.
